Results from the supplement of paper PMC9112550, “Optimization of the antimicrobial peptide Bac7 by deep mutational scanning” (BMC Biology, 2022).

System: Escherichia coli TOP10
Assay: shrunken log2 fold change of peptide-encoding DNA abundance (4.5 h post-induction vs induction); higher = less antimicrobial activity (less host growth inhibition)
Details: time post-induction: 4.5 h; library: site-saturation at positions 5, 18, 19, 20
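Also: peptides expressed intracellularly from a pBAD plasmid library in pooled LB shake-flask culture, induced with 0.3% L-arabinose, DNA abundance read by NGS, three biological replicates, DESeq2 with apeglm shrinkage.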

Sequence	shrunken log2 fold change
RRIRRRPPRLPRPRPRPKFSPRP	0.0704
RRIRWRPPRLPRPRPRPQPHPRP	0.134
RRIRARPPRLPRPRPRPVLRPRP	0.228
RRIRQRPPRLPRPRPRPMMQPRP	-0.313
RRIRRRPPRLPRPRPRPAHDPRP	0.873
RRIRLRPPRLPRPRPRPIMDPRP	-0.0403
RRIRYRPPRLPRPRPRPSWLPRP	-0.78
RRIRTRPPRLPRPRPRPNLAPRP	0.0471
RRIRSRPPRLPRPRPRPVSGPRP	0.00238
RRIRKRPPRLPRPRPRPTIEPRP	0.236
RRIRWRPPRLPRPRPRPLCNPRP	0.0306
RRIRSRPPRLPRPRPRPMYVPRP	-0.84
RRIRCRPPRLPRPRPRPPYHPRP	-0.334
RRIRCRPPRLPRPRPRPMMNPRP	-0.278
RRIRTRPPRLPRPRPRPISCPRP	0.0135
RRIRCRPPRLPRPRPRPDWVPRP	0.0222
RRIRVRPPRLPRPRPRPKTVPRP	-0.012
RRIRKRPPRLPRPRPRPSHVPRP	0.164
RRIRLRPPRLPRPRPRPVALPRP	0.0145
RRIRQRPPRLPRPRPRPYSDPRP	-0.028
RRIRERPPRLPRPRPRPIWKPRP	-0.644
RRIRHRPPRLPRPRPRPMWDPRP	-0.0134

Sequence	shrunken log2 fold change
RRIRKRPPRLPRPRPRPGPSPRP	2.27
RRIRPRPPRLPRPRPRPCHIPRP	-0.821
RRIRQRPPRLPRPRPRPKPCPRP	-0.273
RRIRSRPPRLPRPRPRPFNCPRP	-0.441
RRIRVRPPRLPRPRPRPNVPPRP	-0.345
RRIRMRPPRLPRPRPRPQFSPRP	0.0281
RRIRTRPPRLPRPRPRPTGAPRP	0.323
RRIRMRPPRLPRPRPRPHFNPRP	-0.0825
RRIRGRPPRLPRPRPRPYWPPRP	0.0961
RRIRCRPPRLPRPRPRPHWTPRP	-0.226
RRIRTRPPRLPRPRPRPAYAPRP	0.0376
RRIRFRPPRLPRPRPRPMNDPRP	-0.122
RRIRFRPPRLPRPRPRPRYKPRP	-0.311
RRIRRRPPRLPRPRPRPQNPPRP	0.214
RRIRMRPPRLPRPRPRPYKTPRP	0.0261
RRIRQRPPRLPRPRPRPPCPPRP	0.085
RRIRMRPPRLPRPRPRPHICPRP	-0.0377
RRIRDRPPRLPRPRPRPVEPPRP	0.0157
RRIRKRPPRLPRPRPRPHARPRP	0.709
RRIRPRPPRLPRPRPRPYRHPRP	-0.483
RRIRKRPPRLPRPRPRPLHCPRP	0.0213
RRIRPRPPRLPRPRPRPTWPPRP	0.47

Sequence	shrunken log2 fold change
RRIRERPPRLPRPRPRPNAPPRP	0.0774
RRIRNRPPRLPRPRPRPNQRPRP	0.0166
RRIRARPPRLPRPRPRPVCSPRP	0.665
RRIRLRPPRLPRPRPRPVDVPRP	0.0939
RRIRCRPPRLPRPRPRPKSGPRP	0.017
RRIRYRPPRLPRPRPRPNHHPRP	-1.19
RRIRFRPPRLPRPRPRPRMVPRP	-0.157
RRIRYRPPRLPRPRPRPQATPRP	-0.108
RRIRGRPPRLPRPRPRPMAFPRP	0.572
RRIRVRPPRLPRPRPRPSKNPRP	-0.364
RRIRLRPPRLPRPRPRPQHPPRP	-0.132
RRIRARPPRLPRPRPRPQTGPRP	0.242
RRIRMRPPRLPRPRPRPPHHPRP	0.527
RRIRWRPPRLPRPRPRPTGPPRP	0.217
RRIRMRPPRLPRPRPRPQLCPRP	0.237
RRIRGRPPRLPRPRPRPVCRPRP	0.802
RRIRKRPPRLPRPRPRPEHTPRP	-0.0305
RRIRVRPPRLPRPRPRPWTSPRP	-0.329
RRIRDRPPRLPRPRPRPQREPRP	-0.0375
RRIRSRPPRLPRPRPRPNRTPRP	-0.0602
RRIRGRPPRLPRPRPRPCVLPRP	0.158
RRIRGRPPRLPRPRPRPDGKPRP	0.0293

Sequence	shrunken log2 fold change
RRIRIRPPRLPRPRPRPPPVPRP	0.414
RRIRRRPPRLPRPRPRPMKSPRP	0.304
RRIRERPPRLPRPRPRPDGAPRP	0.129
RRIRNRPPRLPRPRPRPDWRPRP	-0.158
RRIRCRPPRLPRPRPRPSWHPRP	-0.488
RRIRQRPPRLPRPRPRPKCMPRP	-0.551
RRIRHRPPRLPRPRPRPRETPRP	0.0714
RRIRSRPPRLPRPRPRPKSGPRP	0.0485
RRIRGRPPRLPRPRPRPYSCPRP	0.131
RRIRQRPPRLPRPRPRPAWKPRP	0.0232
RRIRWRPPRLPRPRPRPFQQPRP	-0.0106
RRIRKRPPRLPRPRPRPIDHPRP	-0.0104
RRIRSRPPRLPRPRPRPMRVPRP	0.691
RRIRERPPRLPRPRPRPFNLPRP	-0.233
RRIRVRPPRLPRPRPRPFITPRP	-0.334
RRIRTRPPRLPRPRPRPWIYPRP	-0.0134
RRIRSRPPRLPRPRPRPPFNPRP	-0.298
RRIRTRPPRLPRPRPRPGWTPRP	0.24
RRIRSRPPRLPRPRPRPSRFPRP	-0.0392
RRIRSRPPRLPRPRPRPDEPPRP	0.0784
RRIRERPPRLPRPRPRPNSAPRP	-0.503
RRIRLRPPRLPRPRPRPFDQPRP	0.0721

Sequence	shrunken log2 fold change
RRIRMRPPRLPRPRPRPMYGPRP	0.0383
RRIRLRPPRLPRPRPRPCQRPRP	-0.00788
RRIRDRPPRLPRPRPRPAQHPRP	0.288
RRIRLRPPRLPRPRPRPWIYPRP	-0.385
RRIRHRPPRLPRPRPRPACMPRP	0.0463
RRIRSRPPRLPRPRPRPEILPRP	-0.0652
RRIRYRPPRLPRPRPRPLYQPRP	-0.13
RRIRMRPPRLPRPRPRPYCDPRP	-0.556
RRIRGRPPRLPRPRPRPWSCPRP	0.202
RRIRCRPPRLPRPRPRPQSWPRP	0.69
RRIRKRPPRLPRPRPRPTYPPRP	-0.00526
RRIRTRPPRLPRPRPRPHPNPRP	0.0697
RRIRERPPRLPRPRPRPLAFPRP	-0.0552
RRIRLRPPRLPRPRPRPVVAPRP	0.0705
RRIRYRPPRLPRPRPRPDQIPRP	0.0304
RRIRSRPPRLPRPRPRPNPIPRP	0.0127
RRIRVRPPRLPRPRPRPNKPPRP	-0.0479
RRIRLRPPRLPRPRPRPVSEPRP	0.172
RRIRMRPPRLPRPRPRPCSTPRP	0.477
RRIRERPPRLPRPRPRPMWAPRP	-0.122
RRIRWRPPRLPRPRPRPLVQPRP	0.23
